Results as given in the supplement of paper PMC12042874.
± gives the uncertainty stated by the source.

Assay: amyloid nucleation score (Sup35N fusion, yeast selection) (log enrichment); library NNK2; higher = more nucleation; inactive = no reads after selection
Summary of the method: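 On medium lacking adenine and uracil, psi-negative yeast expressing peptides of 20 random codons fused to Sup35N were grown 7 days at 30°C after a 24-hour induction with 100 μM copper sulfate. Illumina sequencing of input and output plasmid inserts gave the reads, and sequences under 100 input reads were excluded. The nucleation score is the DiMSum log enrichment of output over input reads, centred on the mode score of non-aggregating sequences.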

Row | Substance | amyloid nucleation score
1 | CYFCWDFLIGCNFTHNAQ | 7.237 ± 0.063
2 | SYLLSRYLRPKGYADNIVYA | inactive
3 | CFAVAKEWLNAAVHGVGQFP | 0.123 ± 0.38
4 | YGLLGFFGMQCCHNLCMYRG | 2.02 ± 0.13
5 | LMFCTRFSLYTGSWFWSSVT | 1.57 ± 0.18
6 | WSIVGLGSRCWREVASCSTV | 0.636 ± 0.49
7 | RYNTYML | -1.33 ± 0.36
8 | HTYNLSKR | -1.1 ± 0.62
9 | RLGEWGFNRLVWFNKEAVCS | 0.495 ± 0.47
10 | RGVVWRR | 0.23 ± 0.63
11 | VESLFGYW | -0.889 ± 1.1
12 | GEHRQGCYFGAIVFAILMFS | 0.007 ± 0.55
13 | CVIYVKVIIMPVSIVDVGSV | -0.351 ± 0.48
14 | DVKSAWRLGVGCLTVRAIRE | 0.233 ± 0.49
15 | SYYMISY | 2.05 ± 0.12
16 | CSFGPIVAD | -1.12 ± 0.63
17 | RFVKSRRATILSNDG | -0.198 ± 0.39
18 | RYMCGRGHRCF | 3.04 ± 0.087
19 | LSQCYSRLLVSTMKSH | 0.854 ± 0.14
20 | ECSFVMKY | 3.41 ± 0.074
21 | WYRPTSYRRKHKGDISLDLG | -0.226 ± 1.1
22 | VHPGMNLDMSNACSAFVRTW | -0.631 ± 1
23 | ANQDGNCFGFISVGSQLSLM | 0.387 ± 0.8
24 | WSNPTKLFHELAVQLNYTMP | 0.903 ± 0.74
25 | ALHSWFRMSSLSMYIVDMGG | -0.077 ± 0.76
26 | CLITLLIMECKYAVDLWGSV | 1.04 ± 0.34

Row | Substance | amyloid nucleation score
27 | YAVAEGFVASGYWTAYMPLS | 0.487 ± 0.62
28 | IEQFTVNLLTRRLKNSMGQN | -0.544 ± 0.79
29 | VRSVGGTLASPWRAYGC | 0.527 ± 0.57
30 | RSCYVYRN | inactive
31 | MLKMS | 1.85 ± 0.15
32 | TFDVTRI | -0.311 ± 0.33
33 | YVWRYVRPLVLAIDCVVAR | 0.001 ± 0.42
34 | LDICCIRGMNRHFRFYNVDV | -0.402 ± 0.61
35 | NNSMLLSDTLLGYRRTGLDC | -0.176 ± 0.3
36 | LRLFSFIVMGHNGVKHLVLC | 0.011 ± 0.8
37 | LYKRMYECRRYFLMWNYRGF | inactive
38 | FYPVFKSMLVMAGVTRHLAR | -0.487 ± 0.26
39 | LAQVFIIEAPFMTKFLPMLR | 2.81 ± 0.097
40 | FLLDAPKLAEDEYPHGSDDN | inactive
41 | IIINFRVAINDWGFLSVSID | 5.515 ± 0.027
42 | QPPMRVYSLVMLCDAVSSKD | 0.339 ± 0.56
43 | YYQEHQTRLWIWSQHGLNAI | 0.864 ± 0.19
44 | ELMVTVVDHCTFVVTRLCGE | 7.184 ± 0.064
45 | DWPRLLNFWRY | -0.284 ± 1.1
46 | LRREGTYIRPCKDMYFGDSC | inactive
47 | AKKLMSWEAVVLWGASRCVT | 1.08 ± 0.42
48 | GWKDGLAASSF | 1.01 ± 0.2
49 | LVSVLGSTFLGSAWDTEGWY | -0.579 ± 0.5
50 | HHGQTHHLMWNWIF | 4.27 ± 0.1
51 | ECMAWGIFCGGSSGIFCLNQ | inactive
52 | VSEMPLLYR | 0.769 ± 0.53

Row | Substance | amyloid nucleation score
53 | LPDIFLSVYKLLVYKSLLPA | 0.073 ± 0.53
54 | TVSGDTSRRSRMNFSFYMQR | -0.266 ± 1.1
55 | TKVQERLGHF | 1.46 ± 0.58
56 | KKNEIEVECGPNCGTGTLVF | 5.04 ± 0.054
57 | IIFDNFLEMVAILWLLVCCY | -1.66 ± 0.76
58 | CNYRVA | 0.276 ± 0.39
59 | ARTSLCESTWPTNVRIGPKS | 0.498 ± 0.64
60 | GTWMWETFCRLTFVFGIRRG | -0.264 ± 0.54
61 | ISWIFLKSAFTELAVFWDFI | 0.726 ± 0.46
62 | NPSCTRKVLVYSY | 0.359 ± 0.43
63 | NRFYIWRSDRNYTLVACRSK | -0.237 ± 0.79
64 | VTKSRRFSFLYYVESLHNRC | 4.25 ± 0.048
65 | LRVPIR | 0.077 ± 0.28
66 | IITYVLLFNKFNTGVCE | 7.393 ± 0.049
67 | ECHANASFFLCRGAERSACG | 0.783 ± 0.58
68 | FDDLLEARYSFSVKVCY | -0.947 ± 0.35
69 | PLCRRLVLLFRIFYNSRN | -1.46 ± 1.1
70 | NFMYRSSMFMHL | 4.74 ± 0.074
71 | VFPMVFTKGNANVCHI | 0.886 ± 0.58
72 | SIINLTVPAHPHLNNPLRRQ | 4.76 ± 0.075
73 | YIFLIMCRWYSATLIRKTSC | -0.584 ± 0.76
74 | FSKHNSYGTNINNLFFSLLH | 6.19 ± 0.077
75 | DIHQFGCTHIGCVIGYCCRV | 8.504 ± 0.031
76 | HVNWVKKSSWLIGT | 0.62 ± 0.74
77 | MTSFGYHMNLCH | 0.072 ± 1.1
78 | KICSYPR | 2.46 ± 0.11

Row | Substance | amyloid nucleation score
79 | RGSNVGMRDLAYRPHSGQMW | 1.68 ± 0.56
80 | EQYPNKPVRCEVRATATWGP | 0.245 ± 0.27
81 | SDAIKWIYL | 0.335 ± 0.29
82 | PRFAYCSSIANKMMGVG | 2.36 ± 0.18
83 | VRWTRFQALLYLK | inactive
84 | GNIAVYNDAILLVWDNESRT | -0.714 ± 1
85 | IYGQCWVFQNLLRLRVSV | 0.119 ± 0.76
86 | CKVHFW | 0.596 ± 0.62
87 | GVKRLVTGVCNKYRDIFFVG | -0.22 ± 1
88 | KRSFVIRNLGFCALRLHISV | 4.63 ± 0.11
89 | WTSLSNVFRLTNMYTRVSKW | -0.55 ± 0.76
90 | DSVIRRNKNTSTL | -0.275 ± 0.25
91 | MWWYSFPLGLLWVFNS | inactive
92 | MRMVA | -0.723 ± 0.49
93 | LGDCVSNHSCLSVEHFDLNY | 4.92 ± 0.11
94 | NYVCSWMLRFSVGRSQIPAV | -0.924 ± 0.76
95 | GVVYLGNRLISFSRSLSLKT | 0.387 ± 0.45
96 | WDLLHYFDLF | 0.232 ± 0.56
97 | RIHYYVVLCLGSRRSTFGLR | -0.171 ± 0.28
98 | SDIVNMGEVLVLGDSYWREG | -0.449 ± 0.63
99 | LNICDLRPLV | -0.93 ± 0.76
100 | IFVCAMV | 0.395 ± 0.65
101 | PRMSTMTTKCGKLKNGKYRR | 0.549 ± 0.51
102 | SFWDRGFNIRQ | 6.145 ± 0.038
103 | ACRLISLVML | inactive
104 | VTCNPHGLSHD | inactive

Row | Substance | amyloid nucleation score
105 | IFDVNCPS | -0.196 ± 1.1
106 | PMSFTLNRRQRRLHMLRTNN | 0.854 ± 0.43
107 | LVGDLVVGYGMCRKGVVR | 5.03 ± 0.079
108 | IGLKYSLWVVGFEVRLRCAD | 3.86 ± 0.07
109 | ICIFIWIDASRACKPNIQCS | 5.58 ± 0.062
110 | SVSGTLFPGYCWGNGKAGHF | 1.56 ± 0.091
111 | NRVVHFISIFGFMNS | 3.6 ± 0.098
112 | YYTWCYKKVFGNHWRQDFD | -1.23 ± 0.64
113 | HFNFCLWDNENYRNGMVWCR | 0.042 ± 0.5
114 | NIRQVIKGVSCLHIMWEKWR | -0.304 ± 0.48
115 | YMFAIHELNGEIIGPFTVNP | inactive
116 | WSWGGHAVMFY | -0.424 ± 1.1
117 | MQSINVNNVKTSTRPFFVNR | inactive
118 | ADYLRDSFQRWLMEVGLDRR | 1.44 ± 0.26
119 | IVGHM | -0.5 ± 0.21
120 | CPIYDRTQGLIGLWCLCNEC | -0.668 ± 0.34
121 | MFNCTQSVLPLGF | inactive
122 | MSAPRMEQSWEHQQQRDHTC | 0.661 ± 0.33
123 | LSFDEVTLVRAKFHGSVIRL | 4.86 ± 0.06
124 | SYSDPETFISWVLVDWCLMS | -0.753 ± 0.55
125 | FFFMTKNFKIFTSALDVPSE | -1.14 ± 1.1
126 | LSIVKFI | 1.3 ± 0.12
127 | LSRCWVMSQQCKKSAGVFYA | -0.026 ± 0.55
